Measurements published in patent US20040086528A1 (PROGENICS PHARMACEUTICALS, published 2004).
Numbering of substitutions follows the chain as printed.

T1: CCR5 K22A, HA-tagged (human, UniProt P51681 1-352)
T1 sequence: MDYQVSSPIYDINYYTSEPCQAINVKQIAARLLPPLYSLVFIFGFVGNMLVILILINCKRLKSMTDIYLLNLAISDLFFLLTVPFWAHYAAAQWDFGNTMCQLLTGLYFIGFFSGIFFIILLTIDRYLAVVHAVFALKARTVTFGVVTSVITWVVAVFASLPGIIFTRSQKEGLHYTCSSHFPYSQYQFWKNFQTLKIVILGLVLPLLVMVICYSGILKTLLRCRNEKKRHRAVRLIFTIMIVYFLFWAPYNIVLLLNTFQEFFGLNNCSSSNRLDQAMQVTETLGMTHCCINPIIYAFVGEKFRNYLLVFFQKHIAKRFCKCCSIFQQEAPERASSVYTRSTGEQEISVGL

T2: CCR5 D2A, HA-tagged (human, UniProt P51681 1-352)
T2 sequence (looked up): T1 sequence with D2A, A22K

T3: CCR5 Y184A, HA-tagged (human, UniProt P51681 1-352)
T3 sequence: T1 sequence with A22K, Y184A

T4: CCR5 H181A, HA-tagged (human, UniProt P51681 1-352)
T4 sequence: T1 sequence with A22K, H181A

B1: macrophage inflammatory protein (MIP)-1β, recombinant human (ligand, UniProt P13236 24-92, looked up)
chain: APMGSDPPTACCFSYTARKLPRNFVVDYYETSSLCSQPAVVFQTKRSKQVCADPSESWVQEYVYDLELN
B2: RANTES, recombinant human (ligand)
chain: SPYSSDTTPCCFAYIARPLPRAHIKEYFYTSGKCSNPAVVFVTRKNRQVCANPEKKWVREYINSLEMS

Experiments:
Assay in all cases: cell-based or functional assay
CCR5 K22A, HA-tagged = molecular target: T1, CCR5 K22A, HA-tagged
CCR5 D2A, HA-tagged = molecular target: T2, CCR5 D2A, HA-tagged
CCR5 Y184A, HA-tagged = molecular target: T3, CCR5 Y184A, HA-tagged
CCR5 H181A, HA-tagged = molecular target: T4, CCR5 H181A, HA-tagged

Binder | relative % inhibition of NLluc/JR-FL entry into U87MG-CD4 cells by 2 µg/ml chemokine (wild-type = 100) (CCR5 K22A, HA-tagged) | relative % inhibition of NLluc/JR-FL entry into U87MG-CD4 cells by 2 µg/ml chemokine (wild-type = 100) (CCR5 D2A, HA-tagged) | relative % inhibition of NLluc/JR-FL entry into U87MG-CD4 cells by 2 µg/ml chemokine (wild-type = 100) (CCR5 Y184A, HA-tagged) | relative % inhibition of NLluc/JR-FL entry into U87MG-CD4 cells by 2 µg/ml chemokine (wild-type = 100) (CCR5 H181A, HA-tagged)
B1 | 12% | 97% | 68% | 53%
B2 | -11% | 85% | 36% | 39%
